# Values of other authors, collected in patent US10064909B2, “Compositions and methods for chronic use of a weight-gaining compound” (priority 2015, dated 2018).
# Ends that are not written are not given here.
# Conditions: in vivo; cited from earlier work
substance,measurement,value
"Ghrelin: hormone produced predominantly in the glandular stomach; endogenous ligand of the ghrelin receptor (GHS-R) (GSSFLSPEHQRVQQRKESKKPPAKLQPR; ends and bridges not checked; UniProt Q9UBU3 24-51, looked up)",half-life in the blood,approximately ten minutes
